The results in this text go back to publication PMC5451212, “RISC-interacting clearing 3’- 5’ exoribonucleases (RICEs) degrade uridylated cleavage fragments to maintain functional RISC in Arabidopsis thaliana” (eLife, 2017).

The data set concerns the molecule itself. As to the kind of experiment: SEC; purified proteins after SUMO protease cleavage on Superdex75 (1.6 x 60), 20 mM Tris-HCl pH 7.5, 150 mM NaCl.

B1: RICE2, purified recombinant (SUMO tag cleaved) (enzyme, A. thaliana, UniProt Q9FNG3 1-206, looked up)
chain: MASFDGPKFKMTDGSYVQTKTIDVGSSTDISPYLSLIREDSILNGNRAVIFDVYWDVGFPETETKTKTSGWSLSSVKLSTRNLCLFLRLPKPFHDNLKDLYRFFASKFVTFVGVQIEEDLDLLRENHGLVIRNAINVGKLAAEARGTLVLEFLGTRELAHRVLWSDLGQLDSIEAKWEKAGPEEQLEAAAIEGWLIVNVWDQLSDE
notes: RICE2 (At5g06450; AtDECP), A. thaliana; full-length cDNA in pET28a-SUMO (BamHI/SacI); also called AtDECP; source: E. coli BL21 (DE3), purified (Ni-NTA, SUMO protease cleavage, SEC); not shown: His6, N-terminal, cleaved; SUMO, N-terminal, cleaved
Consider B1, for which the “stoichiometry N” value was roughly 6.

B2: RICE1 D52A, purified recombinant (enzyme, A. thaliana, UniProt Q9SF21 1-200, looked up)
chain: MASFDGQGFMMVDNSWVQTKAIDVESTTDISPYLSKILEDSVWNGNRSIVFAVYWDVKSVSTKSEWRLCSVKFSTKNFCLFLRLPNPFCDNLKDLYRFFASKFVTFVGVQIQEDLALLKENHGIVIRSSLEIGKLAAKARGTPIVEFLGTRELAHKILWYDMSRLDSIQSKWDEASSNDRLEAAAIEGWLIFNVYDQLQQ
notes: RICE1 (At3g11770), A. thaliana; point mutant made on pET28a-SUMO-RICE1; source: E. coli BL21 (DE3), purified (Ni-NTA, SUMO protease cleavage, SEC); not shown: His6, N-terminal, cleaved; SUMO, N-terminal, cleaved
As to B2, the binding result was “binds”.

B3: RICE1 Y54S, purified recombinant (enzyme, A. thaliana, UniProt Q9SF21 1-200, looked up)
chain: MASFDGQGFMMVDNSWVQTKAIDVESTTDISPYLSKILEDSVWNGNRSIVFDVSWDVKSVSTKSEWRLCSVKFSTKNFCLFLRLPNPFCDNLKDLYRFFASKFVTFVGVQIQEDLALLKENHGIVIRSSLEIGKLAAKARGTPIVEFLGTRELAHKILWYDMSRLDSIQSKWDEASSNDRLEAAAIEGWLIFNVYDQLQQ
notes: as for B2
Regarding B3, the binding result was “binds”.

B4: RICE1 E187A, purified recombinant (enzyme, A. thaliana, UniProt Q9SF21 1-200, looked up)
chain: MASFDGQGFMMVDNSWVQTKAIDVESTTDISPYLSKILEDSVWNGNRSIVFDVYWDVKSVSTKSEWRLCSVKFSTKNFCLFLRLPNPFCDNLKDLYRFFASKFVTFVGVQIQEDLALLKENHGIVIRSSLEIGKLAAKARGTPIVEFLGTRELAHKILWYDMSRLDSIQSKWDEASSNDRLEAAAIAGWLIFNVYDQLQQ
notes: as for B2
B4: the binding result is on record as “binds”.
